T1: GST-Bem1p (yeast, UniProt P29366 1-551)
T1 sequence (looked up): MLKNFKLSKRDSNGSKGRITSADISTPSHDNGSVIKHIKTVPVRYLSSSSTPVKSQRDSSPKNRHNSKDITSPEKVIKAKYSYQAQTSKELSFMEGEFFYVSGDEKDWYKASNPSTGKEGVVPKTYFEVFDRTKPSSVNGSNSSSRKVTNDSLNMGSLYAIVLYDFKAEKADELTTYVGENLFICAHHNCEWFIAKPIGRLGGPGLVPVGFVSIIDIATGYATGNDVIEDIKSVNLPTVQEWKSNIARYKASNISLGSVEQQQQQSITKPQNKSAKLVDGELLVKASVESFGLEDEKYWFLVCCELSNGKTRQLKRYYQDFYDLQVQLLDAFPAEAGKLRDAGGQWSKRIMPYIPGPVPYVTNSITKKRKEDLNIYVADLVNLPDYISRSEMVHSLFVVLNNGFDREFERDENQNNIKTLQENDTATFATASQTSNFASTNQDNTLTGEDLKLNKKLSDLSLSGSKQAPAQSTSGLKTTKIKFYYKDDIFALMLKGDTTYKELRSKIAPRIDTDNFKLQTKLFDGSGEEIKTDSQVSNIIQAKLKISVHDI


Legend:
GST-Bem1p = molecular target: T1, GST-Bem1p; assay: pull-down
GST-Exo70p = GST-Exo70p (yeast, UniProt P19658 1-623); assay: pull-down
GST-Exo70p, sequence (P19658 whole entry): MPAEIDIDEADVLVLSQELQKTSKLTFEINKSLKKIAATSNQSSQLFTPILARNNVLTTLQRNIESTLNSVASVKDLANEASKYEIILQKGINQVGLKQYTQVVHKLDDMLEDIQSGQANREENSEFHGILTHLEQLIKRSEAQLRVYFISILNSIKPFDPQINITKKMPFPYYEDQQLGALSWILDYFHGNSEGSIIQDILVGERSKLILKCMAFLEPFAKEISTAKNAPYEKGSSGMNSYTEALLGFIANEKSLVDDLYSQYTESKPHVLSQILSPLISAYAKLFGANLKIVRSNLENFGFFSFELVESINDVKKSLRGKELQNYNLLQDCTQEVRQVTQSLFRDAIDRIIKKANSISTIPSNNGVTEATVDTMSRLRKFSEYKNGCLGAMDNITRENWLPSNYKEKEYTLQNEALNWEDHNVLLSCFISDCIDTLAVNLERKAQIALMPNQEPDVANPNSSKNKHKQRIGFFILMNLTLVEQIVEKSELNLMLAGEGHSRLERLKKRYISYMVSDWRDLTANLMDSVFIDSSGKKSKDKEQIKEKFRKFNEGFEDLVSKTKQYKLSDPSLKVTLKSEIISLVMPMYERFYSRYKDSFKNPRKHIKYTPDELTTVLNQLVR

| binding result (GST-Bem1p) | Kd (GST-Exo70p) [nM] | Binder |
| --- | --- | --- |
| binds | – | His6-MBP-Cdc24^781-854p (domain or fragment, yeast, UniProt P11433 781-854, looked up) FTLLVEKVWNFDDLIMAINSKISNTHNNNISPITKIKYQDEDGDFVVLGSDEDWNVAKEMLAENNEKFLNIRLY |
| – | ~260 | Bem1p-His6 (natural protein, yeast, UniProt P29366 1-551, looked up) MLKNFKLSKRDSNGSKGRITSADISTPSHDNGSVIKHIKTVPVRYLSSSSTPVKSQRDSSPKNRHNSKDITSPEKVIKAKYSYQAQTSKELSFMEGEFFYVSGDEKDWYKASNPSTGKEGVVPKTYFEVFDRTKPSSVNGSNSSSRKVTNDSLNMGSLYAIVLYDFKAEKADELTTYVGENLFICAHHNCEWFIAKPIGRLGGPGLVPVGFVSIIDIATGYATGNDVIEDIKSVNLPTVQEWKSNIARYKASNISLGSVEQQQQQSITKPQNKSAKLVDGELLVKASVESFGLEDEKYWFLVCCELSNGKTRQLKRYYQDFYDLQVQLLDAFPAEAGKLRDAGGQWSKRIMPYIPGPVPYVTNSITKKRKEDLNIYVADLVNLPDYISRSEMVHSLFVVLNNGFDREFERDENQNNIKTLQENDTATFATASQTSNFASTNQDNTLTGEDLKLNKKLSDLSLSGSKQAPAQSTSGLKTTKIKFYYKDDIFALMLKGDTTYKELRSKIAPRIDTDNFKLQTKLFDGSGEEIKTDSQVSNIIQAKLKISVHDI |
